EC50 of CaMKII-α activation (autophosphorylation and percent colocalization of red and green spots (heterooligomeric holoenzymes) data for two substances are collected here from PMC7141811.

Experiment [1] addresses mEGFP-CaMKII-α (human Ca2+/calmodulin-dependent protein kinase II α, Avitag-linker-mEGFP-linker-CaMKII-α) (human) (UniProt Q9UQM7).
For experiment [2] the target is unchanged. Briefly: single-molecule pull-down with TIRF colocalisation; mEGFP-CaMKII-α and mCherry-CaMKII-β* co-transfected in HEK 293T cells (α:β* 3:1 and 1:1); biotinylated holoenzymes captured from 100-200x diluted lysate on streptavidin-coated glass; colocalisation of green and red spots; data not shown.

Chain of UniProt Q9UQM7 (Q9UQM7 whole entry): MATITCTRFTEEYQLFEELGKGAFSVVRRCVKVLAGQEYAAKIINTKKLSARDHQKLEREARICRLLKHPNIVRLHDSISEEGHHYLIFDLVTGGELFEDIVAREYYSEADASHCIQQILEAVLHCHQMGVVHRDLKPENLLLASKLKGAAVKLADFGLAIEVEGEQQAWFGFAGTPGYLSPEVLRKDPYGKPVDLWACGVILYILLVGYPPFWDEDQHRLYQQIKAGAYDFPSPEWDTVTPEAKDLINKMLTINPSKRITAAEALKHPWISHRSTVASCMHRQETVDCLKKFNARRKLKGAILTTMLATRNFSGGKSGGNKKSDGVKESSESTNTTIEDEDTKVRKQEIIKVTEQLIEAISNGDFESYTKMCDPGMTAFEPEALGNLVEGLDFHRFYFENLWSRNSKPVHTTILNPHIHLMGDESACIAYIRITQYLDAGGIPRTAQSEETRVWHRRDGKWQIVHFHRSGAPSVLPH

“calmodulin (Ca2+/calmodulin) (from UniProt P62157 1-149) (natural protein)” displayed an EC50 of CaMKII-α activation (autophosphorylation at Thr 286 of glass-immobilised holoenzymes, single-molecule TIRF) by Ca2+/CaM, 20 nM to 5 μM, 100 μM Ca2+, ATP in experiment [1] of 50 to 100 nM.
In turn, “mCherry-CaMKII-β* (CaMKII-α in which the kinase-hub linker is replaced by that from CaMKII-β) (enzyme)” returned a percent colocalization of red and green spots (heterooligomeric holoenzymes) in experiment [2] of 80%.
